Data on 5 molecules can be found in patent publication US20250277050A1 (published 2025).

By Kd is commonly meant a measure of binding affinity in units of concentration. Read a high Kd as weaker binding.

Test [1] deals with T1, human CD30 expressed on the cell surface (human, UniProt P28908 19-595).
T1 chain: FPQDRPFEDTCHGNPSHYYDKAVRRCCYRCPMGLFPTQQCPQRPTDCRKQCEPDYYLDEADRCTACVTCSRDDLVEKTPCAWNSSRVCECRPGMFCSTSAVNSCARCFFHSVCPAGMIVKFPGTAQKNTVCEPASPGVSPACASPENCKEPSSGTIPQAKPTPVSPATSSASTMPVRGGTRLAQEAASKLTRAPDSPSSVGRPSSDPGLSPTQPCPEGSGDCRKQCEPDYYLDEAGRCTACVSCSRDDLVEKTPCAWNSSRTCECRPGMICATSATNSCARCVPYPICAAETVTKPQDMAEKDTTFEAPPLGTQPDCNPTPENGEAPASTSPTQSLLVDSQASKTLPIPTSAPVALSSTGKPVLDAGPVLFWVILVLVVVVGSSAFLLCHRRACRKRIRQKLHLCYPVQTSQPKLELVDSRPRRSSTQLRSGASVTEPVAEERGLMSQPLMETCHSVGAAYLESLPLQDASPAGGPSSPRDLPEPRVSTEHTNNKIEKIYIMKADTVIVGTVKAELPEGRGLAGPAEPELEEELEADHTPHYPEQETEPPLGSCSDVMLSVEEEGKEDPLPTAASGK
Description: SPR; CD30 immobilized on CM5 chip, antibody as analyte.

For test [2], the target named is T1, human CD30 expressed on the cell surface. Described as above.
The target is the same in test [3]. Description: SPR; antibody immobilized on Protein G chip, CD30 as analyte. In general terms: SPR reads the build-up and loss of mass on a sensor chip optically.

B1: 13H1 (antibody, V domains shown)
VH: QVQLQQSGTELVKPGASVKLSCKASGHTFTSYWMHWVKQRPGQGLEWIGNINPSNGGTNYNEKFKSKATLTVDKSSSTAYMQLSSLTSEDSAVYYCARRGYYGSSSYWSFDVWGTGTTVTVSS
VL: DIVMTQTPKSMSMSVGERVTLSCKASENVGTYVSWYQQKPEQSPKVLIYGASNRFTGVPDRFTGSGSATDFTLTISSVQTEDLADYHCGQSYSYPLTFGAGTKLELK
On to B1, for which, in test [1], the Kd is 0.149 nM. The molecule also returned a Ka in test [2] of 6.7e+09 M⁻¹.

B2: 8D10 (antibody, V domains shown)
VH: QVQLQESGTELVKPGASVKLSCKASGYTFTSYWMHWMKQRPGQGLEWIGNINPSNGGTNYNEKFKNKATLTVDKSSSTAYMQLSSLTSEDSAVYYCARRDYYYGSSYGFDVWGTGTTVTVSS
VL: DIVMTQSPASQSASLGESVTITCLASQTIGTWLAWYQQKPGKSPQFLIYAATSLADGVPSRFSGSGSGTKFSFKISSLQAEDFVSYYCQQLYSTPFTFGGGTKLEIK
For B2, the Kd came out at 0.0592 nM in test [1] and 1.14 nM in test [3]. The Ka in test [2] came out at 1.69e+10 M⁻¹.

B3: 10C2 (antibody, V domains shown)
VH: QVQLEQSGPVLVKPGASVKMSCKASGYTFTDYYMNWVKQSHGKSLEWIGVINPYNGGTSYNQKFKGKATLTVDKSSSTACMELNCLTSEDSAVYYCTLGAYWGQGTSVTVSS
VL: not shown
For B3, the values for the equilibrium dissociation constant (Kd) in test [1] and in test [3] were 0.607 nM and 1.76 nM, respectively. In test [2], this molecule yielded a Ka of 1.65e+09 M⁻¹.

B4: 12B1 (antibody, V domains shown)
VH: EVKLEESGTELVKPGASVKLSCKASGYTFTSYWMHWVKQRPGQGLEWIGNINPTNGGTNYNEKFKSKATLTVDKSSRTAYMQLSSLTSGDSAVYYCARRDFITTSGFAYWGQGTLVTVSA
VL: DIVMTQTTASLSTSVGETVTITCRASGNLHSYLTWYQQKQGKSPQLLVYNAKTLADGVPSRFSGSGSGTQYSLKIDSLQPEDFGSYYCQHFWTTPFTFGSGTKLEIK
For B4, binding in test [1] was characterised by a dissociation constant (Kd) of 0.199 nM. This molecule also had a Ka in test [2] of 5.02e+09 M⁻¹.

B5: 15B8 (antibody, V domains shown)
VH: QVQLEQSGTELVKPGASVKLSCKASGYTFTSYWMHWVKQRPGQGLEWIGNINPSNGGTNYNEKFKSKATLTVDKSSSTAYMQLSSLTSEDSAIYYCARRNNYYASSPFAYWGQGTLVSVSA
VL: DIVMTQTPASLSASVGETVTITCRASGNIHNYLAWYQQKQGKSPQLLVYNAKTLADGVPSRFSGSGSGTQYSLKINSLQPEDFGSYYCQHFWSTPFTFGSGTKLEIK
Molecule B5 registered an equilibrium dissociation constant (Kd) in test [1] of 0.978 nM. The same molecule showed a Ka in test [2] of 1.02e+09 M⁻¹.
